The target of assay [1] is T1, human ICOS expressed on cells (human, UniProt Q9Y6W8 21-199).
T1 construct: also called CHO-S cells transfected with human ICOS; hICOS
T1 sequence: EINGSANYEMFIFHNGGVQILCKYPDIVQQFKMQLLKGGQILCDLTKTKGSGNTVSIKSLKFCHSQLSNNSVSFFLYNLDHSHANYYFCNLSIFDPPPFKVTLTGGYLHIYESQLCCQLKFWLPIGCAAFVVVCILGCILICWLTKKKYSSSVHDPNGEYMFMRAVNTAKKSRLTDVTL
Put plainly: Flow cytometry on CHO-S human ICOS cells, anti-human IgG AF647, mean. The procedure: (§1) CHO—S cells transfected with either human ICOS or mouse ICOS were resuspended in FACS buffer (PBS+1% w/v BSA+0.1% w/v sodium azide) and transferred to a 96-well V-bottom plate (Greiner) at a density of 1×10⁵ cells per well. mAb and mAb² were titrated in FACS buffer, 1 in 3 dilution across 11 points from a starting working concentration of 400 nM. Plates were centrifuged at 300×g for 3 minutes, supernatant discarded and 50 μL mAb or mAb² solution were added to cells and incubated at 4° C. for 1 hour. Cells were washed with 150 μL of PBS and centrifuged at 300×g for 3 minutes, supernatant was discarded and cell pellet resuspended in 150 μL PBS added. This wash step was repeated twice. Bound mAb or mAb² was detected by addition of 50 μL of anti-human 647 (Jackson ImmunoResearch) diluted to 3 ug/ml in FACS buffer. Cells were incubated for 1 hour at 4° C. in the dark. Cells were washed with 150 μL of PBS and centrifuged at 300 g for 3 minutes, supernatant was discarded and cell pellet resuspended in 150 μL PBS added. This wash step was repeated twice. Cells were fixed with 25 μL 4% v/v paraformaldehyde, incubated for 20 minutes at 4° C., cells were pelleted by centrifugation at 300×g and the supernatant discarded. […] AlexaFluor 647 signal intensity (geometric mean) was measured by flow cytometry using a Beckman Coulter CytoFLEX instrument.

In assay [2] the target is T2, mouse ICOS-mFc (Chimerigen) (mouse, UniProt Q9WVS0 21-141, limits assumed).
T2 construct: Bought; also called recombinant mouse ICOS protein; mICOS; not shown: mouse Fc of the bought fusion
T2 sequence: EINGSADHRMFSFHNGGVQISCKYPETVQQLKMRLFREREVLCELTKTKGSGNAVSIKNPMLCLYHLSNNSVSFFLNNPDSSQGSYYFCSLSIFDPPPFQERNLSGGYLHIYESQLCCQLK
The assay can be described thus: DELFIA ELISA on coated mouse ICOS-mFc, N=3. How it is done: (§2) Recombinant ICOS proteins, human ICOS-mFc or mouse ICOS-mFc (Chimerigen) were diluted in 1×PBS and added to Black Hi-bind plates (Griener) at 1 μg/ml, 50 μl/well. Recombinant PD-L1 proteins, human PD-L1-Flag-His or mouse-His were diluted in 1×PBS and added to Black Hi-bind plates (Griener) at 4 μg/ml, 50 μl/well. The plates were left overnight at 4° C. The next day plates were washed 3× with 300 μl/well of 1×PBS+0.1% Tween and blocked with 200 ul/well of 1×PBS+1% BSA blocking buffer for 1 hr at RT on a plate shaker. Plates were washed 3× with 300 μl/well of 1×PBS+0.1% Tween.
(§3) However, human-PD-L1 mAb² antibodies were diluted in 1×PBS+0.1% BSA buffer and diluted 1 in 2 from a starting working concentration of 0.066 μM over an 11 point titration. Titrated antibodies were added to the plates, 50 μl/well and left to incubate for 1 hr at R.T on a plate shaker. Plates were washed 3× with 300 μl/well of 1×PBS+0.1% Tween.
(§4) DELFIA® Eu-labelled Anti-human IgG (Perkin-Elmer) was diluted 1:500 in DELFIA Assay buffer (Perkin-Elmer) and added to the assay plate (50 μl/well), left to incubate for 1 hr at RT on a plate shaker. […] After incubation, assay was read on Envision plate reader (Perkin Elmer), Time-resolved fluorescence (TRF) was measured at 615 nm.
For orientation: In an ELISA, binding on a coated surface is turned into a signal by an enzyme label.

Assay [3] addresses T3, mouse ICOS expressed on CHO cells (mouse, UniProt Q9WVS0 21-200).
T3 construct: also called CHO-S cells transfected with mouse ICOS; mICOS
T3 sequence (looked up): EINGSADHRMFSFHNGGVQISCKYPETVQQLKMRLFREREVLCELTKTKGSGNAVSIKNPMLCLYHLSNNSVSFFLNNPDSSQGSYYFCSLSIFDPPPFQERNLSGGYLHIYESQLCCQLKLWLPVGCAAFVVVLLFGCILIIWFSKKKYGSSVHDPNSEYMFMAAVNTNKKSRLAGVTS
The assay can be described thus: Flow cytometry on CHO-S mouse ICOS cells, anti-human IgG AF647, N=1. How it is done: as §1

For assay [4], the target named is T4, human ICOS-mFc (Chimerigen) (human, UniProt Q9Y6W8 21-140).
T4 construct: Bought; also called recombinant human ICOS protein; hICOS; not shown: mouse Fc of the bought fusion
T4 sequence: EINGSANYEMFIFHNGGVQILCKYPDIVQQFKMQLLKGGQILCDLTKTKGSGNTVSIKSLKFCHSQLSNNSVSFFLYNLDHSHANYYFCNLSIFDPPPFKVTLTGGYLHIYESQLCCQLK
The assay can be described thus: DELFIA ELISA on coated human ICOS-mFc, mean. The procedure:
as §2, §3, §4

For assay [5], the target named is T4, human ICOS-mFc (Chimerigen). The assay can be described thus: HTRF, human ICOS-mFc, competitor human B7-H2-Alexa 647, n2. The procedure: 5 μl of human ICOS-mFc (Chimerigen) at 20 nM (5 nM final) or 5 ul of mouse ICOS-mFc (Chimerigen) at 4 nM (1 nM final) were added to relevant assay wells. Plate was incubated for 1 hour (hr) at room temperature (RT).
After incubation, assay was read on Envision plate reader (Perkin Elmer) using a standard HTRF protocol. 620 nm and 665 nm channel values were exported to Microsoft Excel and % Delta-F and % Neutralisation calculations performed. Titration curves and IC50 values [M] were plotted using Graphpad (Prism). IC50 values were calculated by first transforming the data using equation X=Log(X). The transformed data was then fitted using nonlinear regression, using fitting algorithm, log (inhibitor) vs. response—variable slope (four parameters).
(TR-FRET usually uses a lanthanide donor and a delayed reading to cut background.)

The target of assay [6] is T3, mouse ICOS expressed on CHO cells. Put plainly: Flow cytometry on CHO-S mouse ICOS cells, anti-human IgG AF647, N=2. How it is done: as §1
For orientation: In flow cytometry, cells or beads pass a laser one at a time.

Assay [7] addresses T1, human ICOS expressed on cells. Put plainly: Flow cytometry on CHO-S human ICOS cells, anti-human IgG AF647, N=3. The procedure:
as §1

B1: STIM003 (antibody, human IgG1, kappa)
heavy: not shown
light: EIVLTQSPGTLSLSPGERATLSCRASQSVSRSYLAWYQQKRGQAPRLLIYGASSRATGIPDRFSGDGSGTDFTLSISRLEPEDFAVYYCHQYDMSPFTFGPGTKVDIKRTVAAPSVFIFPPSDEQLKSGTASVVCLLNNFYPREAKVQWKVDNALQSGNSQESVTEQDSKDSTYSLSSTLTLSKADYEKHKVYACEVTHQGLSSPVTKSFNRGEC
notes: Anti-ICOS monospecific antibody, tested as human IgG1; also called STIM003 monoclonal IgG1 antibody
The term EC50 denotes the concentration giving half of the maximal effect. Low values mean higher potency in that assay, high ones lower potency in that assay. By IC50 is commonly meant the midpoint of a concentration-inhibition curve. Read a high IC50 as a need for much substance. B1: the EC50 in assay [1] turned out to be 5.53 nM; in assay [2] it was 0.338 nM; in assay [3], 6.8 nM; in assay [4], 0.751 nM; in assay [6], 2.19 nM; in assay [7], 4.49 nM. This molecule registered a half-maximal inhibitory concentration (IC50) in assay [5] of 0.45 nM.

B2: STIM001 (antibody, human IgG1, kappa)
heavy: not shown
light: DIVMTQSPLSLPVTPGEPASISCRSSQSLLHSNEYNYLDWYLQKPGQSPQLLIFLGSNRASGVPDRFSGSGSGTDFTLKITRVEAEDVGIYYCMQSLQTPLTFGGGTKVEIKRTVAAPSVFIFPPSDEQLKSGTASVVCLLNNFYPREAKVQWKVDNALQSGNSQESVTEQDSKDSTYSLSSTLTLSKADYEKHKVYACEVTHQGLSSPVTKSFNRGEC
notes: Anti-ICOS monospecific antibody, tested as human IgG1; also called STIM001 monoclonal IgG1 antibody
On to B2, for which the EC50 in assay [1] was determined as 21.2 nM; in assay [2], 1.73 nM; in assay [3] it was 25.7 nM; in assay [4] it was 28.9 nM; in assay [6], 5.06 nM; in assay [7], 19.7 nM. The molecule also had an IC50 in assay [5] of 1.12 nM.

For the origin of these results see US20240343810A1 (published 2024).
